Measured values published in the DeepSol protein solubility set.

Assay: soluble on expression in E. coli; label from the status in PepcDB or PDB records

Row | Sequence | soluble on expression in E. coli
1 | MEYKLHNGSGGLCCKGCSRQDKKLNTYDWLADIPGNAEECDMVEVQFKNTRKGYYRNSNKIKLEKGDIVAVEAAPGHDIGVVTLTGRLVPLQMKKANFKTDVEIKRIYRKAKPVDMEKFNEAKAKEHATMIRARQIALNLNLDMKIGDVEYQGDGNKAIFYYIADERVDFRQLIKVLAEAFRVRIEMKQIGARQEAGRIGGIGPCGRELCCATWMTSFVSVSTSAARFQDISLNPQKLAGQCAKLKCCLNYEVDCYVEAQKRLPSKEIELETKDGTFYFFKADILSNHVSYSTDKNFPANLVTISGKRAFEVIAMNKKGMKPDSLLEAEVKQESKKPIDLLEQESLTRFDRNRNNKDGNNGNRNKKKRKGNNDNRPQAQAESGNRPQQPQRGENENRPQPSENGNRGERGDRENRPRNNNNNNRNRGQNQGRNNENRRPERGQNQERPQNPNRPQNQERSQNQERPVNQERNQERNQERPQNRERQPKQERPQNQERPQEQGRQPNQERIPRPERNSNQEKPQNNEKPAQELEHHHHHH | soluble
2 | MAHHHHHHMHLKECPPASSVGWLRPSLTIYMFGSKSLALSSAVFVLDCFTMGRKQRLLSAVVNVPLTLRLMLYFSASYKGEEPRLPPSTCVLGSSQGNNFLLLPGAFAESGCTTFFPGREGLMSELQDELWLQLPSRLLILARLDLANFLFAVVGRLPNSGINLFQQRPPSSLAVLPKRCMGMTLVALTTL | not soluble
3 | MGSDKIHHHHHHACCQGAASSGNAGKNASRVRIASNDSAKLVPDKALNDASCVLAGLPVDKASGKLYALTRTKEWKNHARYMDQIWNVFRQTAPRLVAFSQTELEDINTRCHTLFYPFGGPDFLFANAFFPEMDTYVLIGLEPAGTAPKVKHPSAETYRLYQNAVSNVLNLSFFNDMDKELANDTIDGVVPIYSLLMARGNRKIVSIQEVWLSETGDLFERKEGDTIRNTCSAGMEVRFFRPGASRLQTLYYFCTDISNEGLQANRPLQAFMDRFDAETTATFVKSASYLMHEPAFSRIRETILQKSSAVVQDDSSIPLSCFDPEVWSVTLYGTFYKPISTFSQYLQPQLRDAYQLGDPNPLNFRIGYARQSNLQVARRK | not soluble
4 | MKDKIIDNAITLFSEKGYDGTTLDDIAKSVNIKKASLYYHFDSKKSIYEQSVKCCFDYLNNIIMMNQNKSNYSIDALYQFLFEFIFDIEERYIRMYVQLSNTPEEFSGNIYGQIQDLNQSLSKEIAKFYDESKIKMTKEDFQNLILLFLESWYLKASFSQKFGAVEESKSQFKDEVYSLLNIFLKK | not soluble
5 | RTDTIMVLNVGNKDKKIKMVSFMRDTLVNIKGVSADNYSYDNKLNSAFNIGEQDNNQGAELMRQTLKRNFDIDIKYYVMVDFQTFAEAIDTLFPNGVEINAKFATVGGEAVDSVEVPDDLNMKDGVVPNQTISVGKQKMDGRTLLNYARFRKDDEGDFGRTKRQQQVMSAIMSQIKD | not soluble
6 | MAHHHHHHMGIVGEYEILETLGTGAFSKVKLVRHLPTNVYFVAKIIQKSNQQVETDVRLEISILRRLRHRNIVQLIEILESSNNYYIILEPVLGGDVCSLVLSQEGGLAEDFVANLFFQLVAGLRACHQNGVAHRDLKPENLLLTGEKVLKISDFGLSRLHKQSNFHAEAEEYAHTLTGTLAYVAPEVLDGNYDAFKADIWSIGCILYVMLTGQFPFGPTTDACELGERIKDGRVCEMPKSVSENARELTMWLLSRDPASRPSLDEVATHAFLRQHVPAKNIMALTRSRQAKILAPDPSEFSSAIPEEKQVANS | soluble
7 | MHHHHHHSSGRENLYFQGESTRRLILVGRTGAGKSATGNSILGQRRFFSRLGATSVTRACTTGSRRWDKCHVEVVDTPDIFSSQVSKTDPGCEERGHCYLLSAPGPHALLLVTQLGRFTAQDQQAVRQVRDMFGEDVLKWMVIVFTRKEDLAGGSLHDYVSNTENRALRELVAECGGRVCAFDNRATGREQEAQVEQLLGMVEGLVLEHKGAHYSNEVYELAQVLRWAGPEERLRRVAERVAARVQR | soluble
8 | MSLWKNFNFVTKYFTKRRQRYITKTIAMNQQEFQLREITYQDIKDLLAIEREVYAGELPWTMSAFMAELGSKAPHLYLLAAINGKTVGFIGCRIQGTDAHITNVAVHTAYQGLGLGRSLIEETRIFAKKNRCETLSLEVRMSNVKAQRLYRKIGFVSQTVKKGYYDENNEDALEMIIDLKEEEGHHHHHH | soluble
9 | MGSDKIHHHHHHMKNNETKVPTSRLSRLSKMGGLASRLAGNVLLEGAKQLSQGKSPSMQQLMMTPKNIGHVADKLSQLRGAAMKVGQMLSMDAGDLVPPELAEILAKLRSDAKAMPHKQLTQLLVQHWGHDWLAPFAQFELRPFAAASIGQVHLAYLDTGEKLAIKIQYPGIRDSIDSDIDNVASLLKVSRLIPANVKLDTLLAEAKAQLHNEADYHFEAQQIALYQQQLGDSPHFIVPKVYPKLSNNSILCMQFVEGVAIESVEHSPQDVRDKVASALMELCFKELFCFQLVQSDPNFANFQYQADSQKIVLLDFGATRTISDTLSQGYMQLMQGAIADDKQQMIQAAQQIGFFQDAIDPQQKQLIIDIFYQACEPLRTQGTYDFGASNLAKRITQAGKAMSTQQNEWHTPPTDAIFIHRKLAGMYLLAAKLNANINVHALFNQVVNSKNE | not soluble
10 | MTSYDQIWETFLNNCETSDFDVPQQEEDIYKSIRNAILHFNNRLRDNLKADNSTETVNRELSEDDLLILAHFLRYIFLLNKKTLFENTWQPFTNDVGIKNFGTQLNSLKQSVMDQKDEIERLILNAAVDYLLEHHHHHH | not soluble
11 | MGSDKIHHHHHHINKDNITTDTAEESKQQDSNKKQELPTATYMGGSNTITEVCDELGSAGASHVDTFKEWVTDFADSAGKNAKLKDTWSDAYKMKADTVKCMDGWEKKHDYSDADCRMTAFLLLDGLLHAQSTEDSYSGTYLMFDTEAIDNVDRYEIIRQNKDMFTTLYGEKSITDDKHPEKTFSDNWKKYGFQIDSNCISLISIAIYDPDSDAMFVGHTGVLIKYSDYYLFVEKIAFEQPYQATKVNNMDELLSILSLRPEYFGEEKEAGPFVYNNGDYVGTLELQG | not soluble
12 | MAHHHHHHMRSNCAPLGRVKIRILDLTVLSEDASDFVYDGLYVVSRLGPDAQRTNILCNGADSAGGRCWNEVFMFHFEGNPPEFRETAPTLSKSGLDVTVGQHISTYHDGPSLGNPSREYILPQQPHEVKRGLLAPPWMGGSCALPAITLELWRYSLSSDDCLARYQFCIPLEMSSGNIADRVVRLASASSYSVQFALRIRVALSGYDGGALGFENYMPAMSPANLPVLWRH | not soluble
13 | SRLITHNMLSCNIKGVTSGFPLRIEAGNVIEKEVDFNPDFIRHMFAKIEWKALVEGARSMGYAELPEESPDAAVLKSDEPFLKKLHHALLELHLEEGALVCPETGRKFPVNKGIPNMLLHEDEV | soluble
14 | MLEHGGRLREAARRYDIPLADWLDLSTGIAPWPFSLPAIPEQAWTRLPESDDGLEAAACLYYGAERVLPLAGSQAAIQALPRMRRGGRVGVLSPCYAEHAHAWRQAGHLVREIGEAEVEPYLDSLDVLLVVNPNNPTGRVFEPAELLAWHARLQRRGGWLLVDEAFMDCTPQSSLAACSNRPGLIVLRSFGKFFGLAGARLGFALGERPLLQALAEQLGPWTVNGPVRHVAQSALRDRQQQRQQRERLLAASQRLEELLRRHGWPPAGGSALFQRLVDPRCAALHDYLARRGILTRQFEQPASLRLGLPADEAAWARLDAALLGFKEPAHE | not soluble
15 | MSLKPGDEVKVLTFGQKGTLLEKTGGNEWNVQIGILKMKVKEKDLEFIKSAPEPKKEKMITAVKGKDYHVSLELDLRGERYENALSRVEKYLDDAVLAGYPRVSIIHGKGTGALRKGVQDLLKNHRSVKSSRFGEAGEGGSGVTVVELKEGHHHHHH | not soluble
16 | GPLGSKAPTVFSQNEASLLNQLKNIANREDYVVTWWDYGYPVRYYSDVKTLVDGGKHLGKDNFFPSFALSKDEQAAANMARLSVEYTEKSFYAPQNDILKSDILQAMMKDYNQSNVDLFLASLSKPDFKIDTPKTRDIYLYMPARMSLIFSTVASFSFINLDTGVLDKPFTFSTAYPLDVKNGEIYLSNGVVLSDDFRSFKIGDNVVSVNSIVEINSIKQGEYKITPIDDKAQFYIFYLKDSAIPYAQFILMDKTMFNSAYVQMFFLGNYDKNLFDLVINSRDAKVFKLKI | soluble
17 | MGSDKIHHHHHHMENYLGRLWTKAQLSEQLRKIAISLPSFIKKGSDYICTRCSSSVAKNCQLPTGNYYCRECIVFGRVTSNENLYYFPQKTFSKTNSLKWKGELTPYQNEVSEELLKGISSKENLLVHAVTGAGKTEMIYHSVAKVIDTGGSVCIASPRIDVCLELYKRLSNDFRCAITLMHGESPSYQRSPLTIATTHQLLKFYHAFDLLIVDEVDAFPYVDNPILYQGVKQALKENGTSIFLTATSTTELERKVARKELKKLHLARRFHANPLVIPEMVWVSGIQKSLQTQKLPPKLYQLINKQRQTRYPLLLFFPHISEGQVFTEILRQAFPMEKIGFVSSKSTSRLKLVQDFRDNKLSILVSTTILERGVTFPSVDVFVIQANHHLFTKSSLVQISGRVGRALERPEGLLYFLHDGKSKSMHQAIKEIKNMNHIGGF | not soluble
18 | GSRLNPVQLELLNKLHLETKLNAEYTFMLAEQSNWNYEVAIKGFQSSMNGIPREAFVQF | soluble
19 | MNSSTANKQKGIQLIPFTVDKVVEQVNEIPPGVQLIHAPQVWEKSAKGKDIVVAVLDTGCDMNHIDLKDRIIGGRNFTKDYEGDPNIYLDNNGHGTHVAGTIAATENGVGVLGVAPLAKMLVLKVLAGDGSGSYEQIIEAIHYAVNWRGPNKERVRVISMSLGGPQDVPELHEAIQNAVKQDVLVVCAAGNNGDCNDNTEELDFPGAYSEVIEVGAVNLERKIACFSNSNQEIDLVAPGDEILSTYPEGKYAVLSGTSMATPHVAGALALLIKQCEREYGRKLSEPEIYAQLIKRTVPLGYERTSEGNGLIDLLKE | not soluble
20 | MSLEMLGIDVVIPDISYLIERADRVKAIFLTHGHDENIGGVFYLLNKLSVPVYGTKLTLALLREKLKQYGHNRKTDLREIHSKSVITFQSTKVSFFRTIHSIPDSVGVSFKTSLGSIVSAGDFKFDQTPALNQTCDIGEIAKIGNSGVLALLSDSANVERPGYTPSEAAVSGEISDALYNSQNRVIIAVFASNINRIQQVIHAAAQNGRKIAVAGKNLQSVLQLARKLGYIEADDELFISVQDVKKYPKREVAIITAGSQGEPLAALTRMANKAHKQLNIEEGDTVVIASTPIPGQELIYSKTVDLLARAGAQVIFAQKRVHVSGHGSQEELKLMINLLKPKYLIPVNGEYRMQKAHSKIAEETGMKRSDIFLIEKGDVVEFRGQNVKIGDKVPYGNILIDGLGVGDIGNIVLRDRRLLSQDGILEGHHHHHH | not soluble
21 | MPNYLENVKDAAAIIASARRIMVVGCSGGGKSTLSQKLAAAFGLRYISMDRDIFWLPGWQLRPREEQRQRIAAVVTEDRWLMDGSNPSSFDLRLPRTDIVLWVRMPRWLCLWGAVSRIVKGYGKARPEMAAGCPERIDLDFLRYIWNFERRHTPVFEESFALHGPNVPIFQLKSRKQIRRLLDLLVVEDLEHHHHHH | soluble
